Experimental data: patent CN117999282A (GAMMADELTA THERAPEUTICS LTD, dated 2024)
One block for each binder: values may come before it.

Assays:
[1] = target: human Vδ1 γδ T cell receptor on cells (skin-, blood- or tumour-derived Vδ1 γδ T cells) (human); test: cell-based or functional assay
[2] = target: T1, recombinant human OX40 (human, UniProt P43489 29-216); test: SPR, OX40 fixed on carboxymethyl dextran chip, bispecific 100nM, then Vδ1 heterodimer 100nM
T1 construct: also called 重组OX40; 人OX40
T1 sequence (looked up): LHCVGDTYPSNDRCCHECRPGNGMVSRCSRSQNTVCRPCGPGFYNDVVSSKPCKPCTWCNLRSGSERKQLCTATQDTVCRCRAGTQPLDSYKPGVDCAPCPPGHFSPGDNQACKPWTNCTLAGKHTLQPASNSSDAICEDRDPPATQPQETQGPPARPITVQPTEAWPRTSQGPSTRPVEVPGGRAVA

[3] = target: T2, recombinant human PD-1 (human, UniProt Q15116 25-167); test: SPR, PD-1 fixed on carboxymethyl dextran chip, bispecific 100nM, then Vδ1 heterodimer 100nM
T2 construct: also called 重组PD-1; 人PD-1
T2 sequence (Q15116 25-167 limits assumed): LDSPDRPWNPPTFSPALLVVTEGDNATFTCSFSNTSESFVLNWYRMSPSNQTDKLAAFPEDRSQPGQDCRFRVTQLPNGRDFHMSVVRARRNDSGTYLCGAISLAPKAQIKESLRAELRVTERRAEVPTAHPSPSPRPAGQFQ

Chain of human Vδ1 γδ T cell receptor on cells (skin-, blood- or tumour-derived Vδ1 γδ T cells) (human) (A0A1B0GX56 22-115, stated change not applied): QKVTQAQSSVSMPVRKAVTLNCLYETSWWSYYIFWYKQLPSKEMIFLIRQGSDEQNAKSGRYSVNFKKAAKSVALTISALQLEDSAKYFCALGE

TCR下调 IC50 (soluble assay) [1]: 38.3 nM
B1: ADT1-4 (parent antibody) (antibody, IgG1, V domains shown)
VH: QVQLQQSGPGLVKPSQTLSLTCAISGDSVSSKSAAWNWIRQSPSRGLEWLGRTYYRSKWSTDYAASVKSRITINPDTSKNQLSLQLNSVTPEDTAVYYCARTWSGYVDVWGQGTLVTVSS
VL: DIQMTQSPPALSASVGDRVTITCRASQDINDWLAWYQHKPGKAPKLLIYDASSLESGVPSRFSGSGSGTEFTLTISSLQPDDFATYYCQQSYSTPQVTFGQGTRLEIK

binding result [2]: binds
B2: 抗Vδ1×OX40双特异性抗体 (ADT1-4-2×珀伽利珠单抗) (bispecific antibody, human IgG1, kappa)
chain 1: DIQMTQSPPALSASVGDRVTITCRASQDINDWLAWYQHKPGKAPKLLIYDASSLESGVPLRFSGSGSGTEFTLTISSLQPDDFATYYCQQKYSAPQVTFGQGTRLEIKRTVAAPSVFIFPPSDEQLKSGTASVVCLLNNFYPREAKVQWKVDNALQSGNSQESVTEQDSKDSTYSLSSTLTLSKADYEKHKVYACEVTHQGLSSPVTKSFNRGEC
chain 2: not shown
notes: also called 抗Vδ1×抗OX40

binding result [3]: binds
B3: 抗Vδ1×PD-1双特异性抗体 (ADT1-4-2×帕博利珠单抗) (bispecific antibody, human IgG1, kappa)
chain 1: EIVLTQSPATLSLSPGERATLSCRASKGVSTSGYSYLHWYQQKPGQAPRLLIYLASYLESGVPARFSGSGSGTDFTLTISSLEPEDFAVYYCQHSRDLPLTFGGGTKVEIKRTVAAPSVFIFPPSDEQLKSGTASVVCLLNNFYPREAKVQWKVDNALQSGNSQESVTEQDSKDSTYSLSSTLTLSKADYEKHKVYACEVTHQGLSSPVTKSFNRGEC
chain 2: not shown
notes: also called 抗Vδ1×抗PD-1
